Experiment: soluble on expression in E. coli; label from the status in PepcDB or PDB records

| Sequence | soluble on expression in E. coli |
| --- | --- |
| MKTFPLQSLTLAEAQQKQFALVDTICRHFPGSEFLAGGDLGLTPSLNQPRITQRVEQVLADAFHAQAAALVQGAGTGAIRAGLAALLKPGQRLLVHDAPVYPTTRVIIEQMGLTLITADFNDLSALKQVVDEQQPDAALVQHTRQQPQDSYVLADVLATLRAAGVPALTDDNYAVMKVARIGCECGANVSTFSCFKLFGPEGVGAVVGDADVISRIRATLYSGGSQIQGSQALEVLRGLVFAPLIHAVKAGVSERLLALLNGGAVAEVKSAVIANAQSKVLIVEFHQLIAARVLEEAQKRGALPYPVGAESKYEIPPLFYRLSGTFRQANPQLEHCAIRINPNRSGEETVLRILRESIASI | not soluble |
| GPLGSPRNANDNNQFYQQKQRQALGEQLYKKVSAKTSNEEAAGKITGMILDLPPQEVFPLLESDELFEQHYKEASAAYESFKKEQEQQTEQA | soluble |
| MGSDKIHHHHHHMNLKQITYFLAVAEAGQMTAAAKQLHMAQPPLSYQLKALEDELGVRLFERGSRGVRLTGSGQQFMTYAQQIVETVAAAENAARRSGEGEIGTLALGLTSSAGDVLPKQKLQAFNRRYPQVEFALYEDNTYGILDKLRRNILDLAIVRTPFNDDGLASCRLSSDHMIAVAAASQPLPATLTIPDLKQQPLIVYRRFSSLFKTTFAEYGITPIIAVLCDDARTALHWAQMGMGVALVPATMAALASQQSHLAVIDYEPWVTHMTLVWQPEALHNPLVARFVGQLSGGESEKYSK | not soluble |
| MSLSSFEGKVAVITGAGSGIGRALALNLSEKRAKLALSDVDTDGLAKTVRLAQALGAQVKSDRLDVAEREAVLAHADAVVAHFGTVHQVYNNAGIAYNGNVDKSEFKDIERIIDVDFWGVVNGTKAFLPHVIASGDGHIVNISSLFGLIAVPGQSAYNAAKFAVRGFTEALRQEMLVARHPVKVTCVHPGGIKTAVARNATVADGEDQQTFAEFFDRRLALHSPEMAAKTIVNGVAKGQARVVVGLEAKAVDVLARIMGSSYQREGHHHHHH | not soluble |
| MPTYKLTYFDGRGLAEPARMLFHLGGVPFEDSRIPVDMKTGLIMNPELADVKKKAPFGKYPVLKIDDIEIAQSAAINRYLARQFGFAGKNPIEEAQADSYIDQCQEYNTSFRACMYATLQGKPEEEVQKIREEVYIPAQNKFYEIFSDILNRNKSGFLVGDSLTWADLVIADHLYSLDTMGMLTHEDAWRCETLKKFQEKIYEHPLLKGYIASRPKGAF | not soluble |
| NSSGVNRVVGNNLDDLALPKLAKDQTNPMTMEELTTRFLRSDSATFDGTVVEVQGFASAAADGTWRLSRYKIYCCAADAMAYTATLETSTSMSSDQWYRVRGVVRVSSAHNPQFPMIEVHNLEAIDTPTEPYL | not soluble |
| MKIHSYIFSLLACLVIALPGYSQVDRNETLIRSALHGLEYEIKAGFSIGGTAPLPLPVEIRSIDGYNPTLAISIGGEVTKWFAVQNKLGVIVGLRLENKAMTTEATVKNYNMEILGQGGERISGVWTGGVKTKVHTSGLTIPLMATYKLSNRWNIKAGPYFSYLLSREFSGHVYEGYLREGDPVGPKVEFTDGKIATYDFSDDLRHFQWGLQIGAGWRAFKHLNIYADLTWGLNDIFRNDFQTITFAMYPIYLNIGFGYAF | not soluble |
| STPGPGASAPNSPMALLTLNCEKEMDDVIEDIISLESSYSDDILGFMDAGLQMTNTIPVSANLLDMYSNHALPPAGVSISNSCPSSLPAVKRELSVTPSPGMMHIMDKAGPCGKFDSYQRPDGFPVEVRALAKERQKKDNHNLIERRRRFNINDRIKELGTLIPKSNDPDMRWNKGTILKASVDYIRKLQKEQQNAKELENRQKRLEHANRHLLLRIQELEMQARAHGLTVVASSSLYSAELVARAIKQEPGMGDCTSNLYPHLPSPDMSRPTTLDLNNGTISYNDSPTEDGEPGVYDSPNKASTKLEDMLMDNTLSPVGSSDPLLSSGSPVPSNSSGSSSMDEHDNGC | not soluble |
| MGHHHHHHSHMMPAERRLPLSFVLDVLEGRAQHPGVLYVQKQCSNLPSELPQLLPDLESHVPWASEALGKMPDAVNFWLGEAAAVTSLHKDHYENLYCVVSGEKHFLFHPPSDRPFIPYELYTPGTYQPSDRPFIPYELYTPATYQLTEEGTFKVVDEEAMEKVPWIPLDPLAPDLARYPSYSQAQALRCMVRAGEMLYLPALWFHHVQQSQGCIAVNFWYDMEYDLKYSYFQLLDSLTKASGLD | soluble |
| MKIVIAPDSFKESLSAEKCCQAIKAGFSTLFPDANYICLPIADGGEGTVDAMVAATGGNIVTLEVCGPMGEKVNAFYGLTGDGKTAVIEMAAASGLMLVAPEKRNPLLASSFGTGELIRHALDNDIRHIILGIGGSATVDGGMGMAQALGVRFLDADGQALAANGGNLARVASIEMDECDPRLANCHIEVACDVDNPLVGARGAAAVFGPQKGATPEMVEELEQGLQNYARVLQQQTEINVCQMAGGGAAGGMGIAAAVFLNADIKPGIEIVLNAVNLAQAVQGAALVITGEGRIDSQTAGGKAPLGVASVAKQFNVPVIGIAGVLGDGVEVVHQYGIDAVFSILPRLAPLAEVLASGETNLFNSARNIACAIKIGQGIKN | soluble |
| GPGSMLHFPITPPPIEIEYLDNDPLEFAVRTEARKWRFDDMGYMRELAFVRINNNPTVGDFRNMSPDERRNLFWGSDRQDFFRHLTCTLTGSPEHLYHRGW | not soluble |
| MNLNKNLPTGTRDKLFREARASYQIEQQVNHYFAKRGFKRIETPVIEFEDVFSSEHQADAKLYRFFDEKGRLTVLRPDMTLPIGRVVSTTGVTLPLKLSYSGKIFRANEDFGGEQNEQTQAGIEIIGYPSIKAEIECILSGIGVLNALEIPNFQIELGHAAIYRRVIHLLNLPETAEMDFRLLIQNKSLTGIQQFVTENPSTLDDFILALPRLFGPATTILKQAKNLTTDKGILTALTEMETIVDAVSYAADISVDLGLVQDFHYYTGIIFRGYADLAADNFLSGGRYDHLLEQFTSSSSPAVGLALNLDSLTT | not soluble |
| MKTLEKRMKALDKRIMKFGKSLEGRLDARLIESALDYIHYSERFLAFEILCTYIEDFDVRLTEQESREISFINKEFEIESTSD | not soluble |
| MGFFSGQFSNVVEWEEFREDMIFWKWHNREIKRGSKLIIRPGQDAIFLFNGRIEGIFKDEGDYDIESQIIPFLSTLQGFKFGFNSGMRAEVLFVNTKEFTAKWGTKSAINIPTPQLPGGIPIRANGTFTFKVNDYVKLIDRIAGVKDSFLVEDVRLRIMALLDQLMMKWIVQEGRDMFNLQSNSFAIADGLKTDLDMQIYDMGITVSQLTIMSFTYPEEIQQMIAKAASHTMIGDMGRYQQVSVLDGIAGGKLEHHHHHH | not soluble |
| MSYNNLLAIEKPVRYTGDEIGSRPKEDAELRFVLAFPDVYEVGMSHLGLQILYDILNREEGIAAERAYTPWPDREAQLRSLGESLATLESQTSLARADIIGFTLQYELSYTNILTMLDLAGIPFRAAERGDEFPLVIAGGPCACNPEPLADFLDAVLLGDGEEAVVEIAAACLERKRNGESKQWLLERLASIDGVYVPSFFEPRYHDDGTIDAIIPLRPAHGRVRRRFLSDLDTAPYPTAPVVPFLKTIHDRVSIEIGRGCTRGCRFCQAGYLYRPVRERSPETILKLVEETLRNTGYDEVSLLSLSTGDYGCLTPLLRELMVRYAHERIAVALPSLRVGSLSQELVEEIRKVRKTGFTLAPEAGSERLRTIINKGISEEDLLRNAFEAFSNGWRVIKLYFMIGLPGETEEDLVGIADLARKVKQEGKRAGSGGEVNVSVSTFVPKPHTPFQWEPQITTEETVAKQRFLRDELKKRKLGLKWHDAPLSFMEGVFARGDRRLGAVLAKAWELGCRFDGWGDRLKSTTWHEAFAVCGIDPAFYHRRRGIDETLPWDHLDFGVTRAFLRQELEKAWAGEPTGDCRTGRCTGCGICDFDRIAMRTTDPAWQKGLEHHHHHH | not soluble |
| MTITNSKAEAWELIGNQFWTIGRVAARPSDRENDIFLENIVPGSTVAVIGASTRFLIEKALERGASVTVFDFSQRMCDDLAEALADRCVTIDLLDITAEIPKELAGHFDFVLNDRLINRFTTEEARRACLGMLSLVGSGTVRASVKLGFYDIDLKLIEYGEQSGTLAKFFDPSDKTFHFREAGDVLDRALVPHGLIDKPTLLEWYRRRGKETRFDDEDVRAL | not soluble |
| MSLTKSSKYDTAFLKENMMGPNAIKIIEELLESLKLEEGMRVLDLGCGKGLTSIFLAKEYGVTVFATDLWISATENYERIKSMGLEDKIIPIHAEAHDLPFAQEYFDVAISVDAYHYFGIEEDYLTKHLAPLVKKGGKIAVAVPGLKKEFENGVPEKLQPYWFEDMTLTLHSLDWWYNLWKKADSVSIEECKELKCLEETWQDWLSCDNDYARRDIGMMEAEGGNYFNLVSIIATRLEGHHHHHH | soluble |
| MRYNQSDNKPFEEVLEASLSRRSILKGGLGISAMTAFGAFGLAGCNSSSSGTSASNGSGVSKAVLNFDSIPGSLTDAVSIPQGYTAQVLVPWGTPLNAQGSAWKNDGSNTSSDQLNALGMHHDGMHFFPLNDSTTDGLLCINHEYIDTSALHPNGPTVANGVRTIVDEVRKEINAHGVSVVRIQLEDNMWKLADTDPLNRRYTGATVMDLSGPVAHTALTVTRFSPDGSQARGTLNNCGNGYTPWGTYLTCEENWPGYFVNAGTRTEEQDRIGVDDKSTRYLWETLAGNSEERLDEFTRFNVAPTGTSSADDYRNEANGHGYIVEIDPYTQNSRAKKRTALGRFRHEGCAFGKLEAGKPVVFYSGHDSRFEYLYKFESAAAWDPADANPANRLATGDKYMDEGTLYVARFNEDSTGTWLPLTLDSVTTSGGTLADHFNSLAEIIINTAGAADLVGATPMDRPEWCSVDPFTGSVYLTLTNNTRRTDETNPANPRLNNKFGHVIRWDEGTSATDFTWDIFVFGSPANGDADTNRSGLNELNQFASPDGLAFDGRGILWIQTDNGADEVTSYTNDQMLAVVPSKLTNENGAQAVIGADNQAELKRFFVGPNGCEVTGFTISPDYKSLFVNIQHPGNWPYSDDAAQETPAGTTVRPRAATVVIRREDGGEIAVLEHHHHHH | soluble |
| MSNDQSAMNELHWLIDMVQTIEVGLVVLDRDYNIQLWNGFMENHSGVSPNSIKGQNLFSRFPDLPATWLKQKMESVFMLKNRAFISWEQRPYVFQFKNYRPITGRADFMYQNVTLLPLASLTGKITHISVIVYDVTDIAVNKLEHHHHHH | soluble |
| MTARYIAIDWGSTNLRAWLYQGEECLESRQSEAGVTRLNGRSPAAVLAEITQHWRDGATPVVMAGMVGSNVGWKIAPYLPLPAAFSDIGQQLTAVGDNIWIIPGLCVSRDDNHNVMRGEETQLLGARALAPSSVYVMPGTHCKWVLADRRQIHDFRTVLTGELHHLLLQLSLVGAGLPPQETSAAAFAAGLQRGINNPAVLPQLFEVRASHVLGALPREQVSEFLSGLLIGAEVATLSDTFAGQQAISLVAGSSLTSRYQQAFAAIGREVSAVAGDTAFQTGIRSIAYAVAN | soluble |
| SRLFSKALKGDHRCGETETPKSCSEVAGCKAAMRHQGKIPEELSLDDRARTQKKWGRGKWEPEPSSKPPREATLEERHARGEKHLGVEIEKTSGEIIRCEKCKRERELQQSLERERLSLGTSELDMGKGPMYDVEKLVRTRSCRRSPEANPASGEEGWKGDSHRSSPRNPTQELRRPSKSMDKKEDRGPEDQESHAQGAAKAKKDLVEVLPVTEEGLREVKKDTRPMSRSKHGGWLLREHQAGFEKLRRTRGEEKEAEKEKKPCMSGGRRMTLRDDQPAKLEKEPKTRPEENKPERPSGRKPRPMGIIAANVEKHYETGRVIGDGNFAVVKECRHRETRQAYAMKIIDKSRLKGKEDMVDSEILIIQSLSHPNIVKLHEVYETDMEIYLILEYVQGGDLFDAIIESVKFPEPDAALMIMDLCKALVHMHDKSIVHRDLKPENLLVQRNEDKSTTLKLADFGLAKHVVRPIFTVCGTPTYVAPEILSEKGYGLEVDMWAAGVILYILLCGFPPFRSPERDQDELFNIIQLGHFEFLPPYWDNISDAAKDLVSRLLVVDPKKRYTAHQVLQHPWIETAGKTNTVKRQKQVSPSSEGHFRSQHKRVVEQVS | soluble |

Source: the DeepSol protein solubility set
